# In the DeepSol protein solubility set:
# Test: soluble on expression in E. coli; label from the status in PepcDB or PDB records
row,Sequence,soluble on expression in E. coli
1,MSLEALLSEDVKIIASALKAAIDKDRKSTSKREAETGIRYYNHENDIMNNRIFYVDDEGVLREDKYASNVRIPHGFFPEIVDQKTQYLLSNPVEYETENEELKEYLAEYYNSEFQVVLQELVEGSSQKGFEYVYARTNAEDRLCFQVADSLNVFGVYNEYNELQRICRHYITEIEKDGETVDIHHAEVWTDQNVYFFVAEDNKDYELDEAEPINPRPHVLAVDSDNESLLQRSYGQIPFYRLSNNKQETTDLKSIKALIDDYDLMNCFLSNNLQDFAEAIYVVSGFQGDDLSKLRQNVKSKKVVGTGSDGGLDVKTVTIPTEGRKTKMEIDKENIYKFGMAFDSTQVGDGNITNIVIKARYTLLNMKANKTEARLRALLEWMNKLVIDDINRRYTKAFDPTEVSFTFTREVMVNETDIVNNEKTEAETRKIILESILQVAPRLDDDNVLRLICEQFDLDWEDVKEALEEAEYTQGLTDNTDEEETAVTPNVPTQQMAEGATGSTESQLPGEGHHHHHH,not soluble
2,MSLFRVGRKIARSIHKAITSEDSVDVSELDGVRSLHLGSDTIQSSMRIKDPYALELRYSRGMMVYLLFQKQPRDLVVLGLGGGSIPKYVYHHLPQVKTRVVEINPRIIEVARSHFFTPENDERFEIIEGDAAAFLRDNPATTSMLMMDAFGSNGLPPDLCSQDFFDSCFEALTLDGMCAINLWGSDKHYDVYLQRIETSFHGRILVMPTGRPGNVVVFGFKRAPNDLRWSTLRVRAKALEAEHKIEFLEFVERLREHNPSTSNRLLLESEGHHHHHH,soluble
3,MIPITPTIALDDAEIEERFIRSSGPGGQNVNKVSTAVQLRFDVAGSPNLPGWVKHRLSVLAGSRLTGEGVLVLTAQSQRTQEANRREAVERLVALIQAACHRDKPRRPTRPTKGSQTRRMDGKTLRGAIKKGRQSKPSLDLEHHHHHH,soluble
4,LTFSLNFATSSKDSYGTGWLIDWKGDENKPSNTDPFLIYLATNLHVVDALRNPQDYEPYNKDSNGQDYGNRDITHFFALGKYTD,not soluble
5,MGSDKIHHHHHHTEDTVIKVSVLRGPSVIAFADWLENPPIIDNKKVQVKVVDSPDLAQALLIKQETDIAVLPMINAANLYNKGIKIKLAGCPIWGTLYLVEKTPLKEPALYVFGNGTTPDILTRYYLGRQRLDYPLNYAFNTAGEITQGILAGKVNRAVLGEPFLSIALRKDSSLRITADLNHLTDNDTLGFAQTAVVYTPTMEKYRIAFEDALRASCQKAVRYPKETIHSLEEHGIFAQGALTPKSIERCKIYYLSAIEAKDAVMGFLRLIEQYEPKAVGGRLPDAGFIPEKQ,not soluble
6,MGSDKIHHHHHHMDILLANPRGFCAGVNRAIQIVDRALELFGAPIYVRHEVVHNRHVVEDLRARGAIFVEELDEVPDAATVIFSAHGVPIAVREHAAARGLSVFDATCPLVTKVHMEVKKYSRDGMEMVLIGHAGHPEVEGTMGQVEEGMMYLVSNVSDVATLAPRNPDKLAYITQTTLSMDDTAEVIVALRSRFPLIEGPKKDDICYATQNRQDAVKSLAPDVDILLVVGAPNSSNSSRLAELGTRLGTQTHLIEDAQQLRREWFEGVGKIGISAGASAPESLVQEIMDTLRGWGARVPQEMPGVEEKVTFSLPLALIQAQTRREGA,not soluble
7,MGKEQFREADKALKVVGVKFAPGDCEFMRQTAHVPIFNNKLYEDVEGKLQPANYGPLDPKMGVSTKTGTCSTCGLGLTDCVGHFGYFDLDVPVFHIGFFKLTIQLLQCICKNCSSILLTPEQHRVFSRQVMNPNLDYLHRKALHKRIVAACKKGSTCSHCGLKNGTVKKAVGAVLKIAFASPVSVDELGKFATMFSSNQEVGDHVRKMKFTLLNPLFVQKLFSNIKEGDIPVLMVRSGEEKHPNDLLLTRMPVPPVCIRPSVVSEVKAGTTEDDVTMKLMEIMLTNDVLKKHKRDGAPSKTLFETWEHLQIQCALYINSEMSGLPPDMQPKRAMRAFTQRLKGKQGRFRGNLCGKRVDFSGRTVISPDPNLRIDQVGVPIHVAMTLTFPEIVNASNIEKMRQLVINGSDVHPGANYLVEKKTGNKKLLKYGKRDELAKNLRMGDTIERHLDDNDVVLFNRQPSLHKISIMSHRAKVMPGRTFRFNECACTPYNADFDGDEMNLHLPQTYEAKAEASELMNVKNNLITPRSGEPLVAAIQDFITGGYLLTHKDTFLPRAEVYRFAAALIDASAKKQTKIRIPPPAIRRPVELWTGKQLIELIIRPDKGSDVSLNLTAKNKSYTGNLELCSKDSYVIIRNSVLLAGCLDKSLLGSSSKVNIFYMLMRDYGEDAAVDAMWRLARMAPVFLSNRGFSIGIGDVRPSEQLLREKGQLVDNGYSKCSQYIKELEEGKLKAQPGCTEEETLESIILRELSTIRDHAGQVCLRNLSKYNAPLTMAVCGSKGSFINISQMIACVGQQAISGHRPPDGFEERSLPHFERKKKTPEAKGFVANSFYSGLTPTEFFFHTMGGREGLVDTAVKTAETGYMQRRLVKCLEDLCASYDGTVRSSVGDVIEFVFGEDGLDPAMMEAKDGSVVDFTHVLEHAKNIQTTKEQPIPVDKLDEVLKAEIQKKFKGKYVHFADKLSEYITQTEIKKSKKWQNGKAHCGNHETADLKTKESCKICKNLEAYKTSLLANSCLTKTQLCSFIELCYYKVARAITEPGTAVGAIAATSIGEPSTQMTLKTFHFAGVASMNITQGVPRIKEIINAVKTISTPIITAALLDPYDESLARRVKARIEKTTLGEICDYIEEVYLPDDYFLLVKLNSKRIRLLQLEVCMESISYAIATSKVCPQMRGCKIVAHGKTMMAIRPPSTSKLSKTMTMQILKYSLANVVVKGIPSVNRCVIHADEKKGDFYSLLVEGTDFRSVLSSVGVDPRKTNFNNALVVADVLGIEAARSCIINEIIATMDAHGIGLDRRHVMLLADVMTYRGEVLGITRNGLVKMKDSVLLLASFEKTMDHLFEAAFFSQRDVIHGVSECIIMGTPMTVGTGTFKLMQKYDKKAVLKQNSPIFERLNVTL,not soluble
8,MLRCCSALMCPTAVPSRVSPVAAAAAADIAGSSESTVSLVADVDKKNSQYKQIFLERFRKKLQSDKTGMNNLESFVELPEGVAPSAASIGPIKRGSEPLPPWIKLKVPKGMTHRPRFNRIRRSMREKNLSTVCEEAKCPNIGECWGGSDEEGTATATIMVMGSHCTRGCRFCSVLTSRRPPPLDPEEPEKVAAAVHEMGVDYIVMTMVDRDDLPDGGASHVCCCIHTIKKKNPELMLEALVGDFHGDLKLVEQLAVTPLSVYAHNIECVERITPRVRDRRASYRQSLQTLEHVTKWTNGNMLTKSSIMLGLGEEEAEVRQTLRDLRTAGVSAVTLGQYLQPSHTRLKVSRYAHPKEFEMWEKEAMDMGFLYCASGPMVRSSYRAGEYYIKNILKQRQSAEGGKAAAAATAVNAGTAIA,not soluble
9,MPEALRTQIDELNSWIYDKVNNGVYKAGFATTQSAYDESASTVFAALSDLETILAKQRYLTGEQLTEADLRLWTTLIRFDPVYHTHFKCDKYRLSDYPNLFGFLRDIYQMPGIAETVDMAHIRHHYYRSHGTINPHGVISLGPEQDLNQPHQRDKKFVDLYLEHHHHHH,soluble
10,SGNLLKVLTCTDLEQEPNFFLDFENAQPTEAERETWEEVDVVLKDALGILDELQAYKGAGQEIREAIQNPNDEALQDQAWAAVVPLVGKLKKFYEFSQRLEAALHSLLRALTSETYDDPTQHLEREQALAKQFAEILHFTLRFDELKMTNPAIQNDFSYYRRTLSRMRINNVPAEGENEVNNELANRISLFYADATPMLKTLSDGTTKFVSENKNLPIENTTDVLSTMASVCKVMLETPEYRSRFSSEETVSFCLRVMVGVIILYDYVHPVGAFAKSSKIDMKGCIKVLKDQPPNSVEGLLNALRYTTKHLNDESTTKTIKSMLQ,soluble
11,MGSDKIHHHHHHVRIESIRTKNFKILKDTTIRNIPAMAIFLGANGSGKSTFFDIFGFLHDCLTDNVRAALLKRGGFKEVVSRGQSGPIEFEIKFRSAPGEPLVTYELHINLDDKGLPIVSKELLKYRRGQKGRPWHFLDFSNGVGHAIVNESEYGKPGVQEAREQQTLDSPDILAIKGLGQFQKYKQIASFRRLIEGWHVSDFRIESARSTNDAGYAEHLSATGDNLALVTQFMHEHYSDRFQQVLEKIAQRVPGIKSVEAKETADGRIVLRFQNEEFKDPFISRYVSDGTLKMFAYLILLYDPTPHPLLCIEEPENQLHPDLLLELAEEFRAYASNGGQVFISTHSPDFVNAVQLEELFWLCQGNNGFSKVVRASDEPLLQSLVAEGDLPGSLWKQGFFEGAGPL,not soluble
12,MGHHHHHHSHMHGPKPTVQEIVLELCPCNEIEPVDLVCHEQLGDSDDEIDEPDHAVNHHQHQLLARRDEQQRHTIQCTCCKCNNLLQLVVEASRENLRKLELLFMDSLNFVCPWCATETQ,not soluble
